Reference: patent US7297837 (Johns Hopkins, dated 2007)

Target: T1, full-length hMLH1 protein (human, UniProt P40692 1-756, 35S-labelled methionine where labelled)
T1 construct: Called full-length
T1 sequence (looked up): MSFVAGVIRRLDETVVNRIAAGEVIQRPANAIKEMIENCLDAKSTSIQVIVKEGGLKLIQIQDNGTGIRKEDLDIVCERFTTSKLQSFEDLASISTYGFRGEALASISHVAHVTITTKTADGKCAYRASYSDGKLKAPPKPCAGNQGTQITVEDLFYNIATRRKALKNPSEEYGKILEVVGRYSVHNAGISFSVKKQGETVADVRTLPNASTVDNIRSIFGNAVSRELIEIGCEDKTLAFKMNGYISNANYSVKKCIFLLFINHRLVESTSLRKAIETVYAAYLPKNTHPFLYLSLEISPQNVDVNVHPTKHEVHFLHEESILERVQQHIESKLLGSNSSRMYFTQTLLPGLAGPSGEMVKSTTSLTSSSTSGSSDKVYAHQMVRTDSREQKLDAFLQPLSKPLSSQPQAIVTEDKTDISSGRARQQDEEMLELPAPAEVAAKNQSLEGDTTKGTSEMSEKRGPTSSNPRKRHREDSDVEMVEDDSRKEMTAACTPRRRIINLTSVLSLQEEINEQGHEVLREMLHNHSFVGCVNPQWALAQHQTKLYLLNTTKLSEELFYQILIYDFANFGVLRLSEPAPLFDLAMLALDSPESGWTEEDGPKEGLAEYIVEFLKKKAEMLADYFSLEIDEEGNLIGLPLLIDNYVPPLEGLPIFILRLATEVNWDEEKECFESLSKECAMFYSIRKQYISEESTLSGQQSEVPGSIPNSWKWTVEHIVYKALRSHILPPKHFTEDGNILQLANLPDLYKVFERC
Experiment: co-immunoprecipitation of in vitro translated proteins with anti-hMLH1 mAb (FIG. 5B, lane 1); converse with N-terminal hPMS2 antibody (FIG. 5C, lane 2)
Method: Immunoprecipitation, Immunoprecipitations were performed on in vitro translated proteins by mixing the translation reactions with 1 μg of the MLH1 specific monoclonal antibody (mAB) MLH14 (Oncogene Science, Inc.), a polyclonal antibody generated to codons 2-20 of hPMS2 described above, or a polyclonal antibody generated to codons 843-862 of hPMS2 (Santa Cruz Biotechnology, Inc.) in 400 µl of EBC buffer (50 mM Tris, pH 7.5, 0.1 M NaCl, 0.5% NP40). After incubation for 1 hr at 4° C., protein A sepharose (Sigma) was added to a final concentration of 10% and reactions were incubated at 4° C. for 1 hour. Proteins bound to protein A were washed five times in EBC and separated by electrophoresis on 4-20% Tris-glycine gels, which were then dried and autoradiographed.
Previous studies have shown that these two proteins dimerize to form a functionally active complex (12, 28). Proteins were synthesized in vitro using reticulocyte lysates, employing RNA generated from cloned templates. The full-length hMLH1 and hPMS2 proteins bound to each other and were co-precipitated with antibodies to either protein, as expected (data not shown). […] When a ^35S-labelled, full length hMLH1 protein (FIG. 5A, lane 5) was mixed with the unlabelled carboxyl terminal hPMS2 polypeptide, a monoclonal antibody (mAb) to the carboxyl terminus of hPMS2 efficiently immunoprecipitated the labeled hMLH1 protein (lane 1). […]

binding result: no binding
B1: hPMS-134 (containing codons 1-134 of hPMS2), in vitro translated (other, human, UniProt P54278 1-134, looked up)
chain: MERAESSSTEPAKAIKPIDRKSVHQICSGQVVLSLSTAVKELVENSLDAGATNIDLKLKDYGVDLIEVSDNGCGVEEENFEGLTLKHHTSKIQEFADLTQVETFGFRGEALSSLCALSDVTISTCHASAKVGTR
modifications: 35S-labelled methionine
notes: The patient allele expressed in cells is said to give the N-terminal 133 amino acids
